Test results reported in article PMC9431562, “A Cytoplasmic NAD(P)H-Dependent Polysulfide Reductase with Thiosulfate Reductase Activity from the Hyperthermophilic Bacterium Thermotoga maritima” (Microbiology Spectrum, 2022).

T1: NSR (Thermotoga maritima, UniProt Q9WYL1)
T1 construct: gene TM_0379; full-length ORF amplified from genomic DNA, pET-24b(+) BamHI/XhoI, His-tagged, E. coli BL21; about 50 kDa by SDS-PAGE; FAD flavoprotein; purified anaerobically
T1 sequence (Q9WYL1 1-443): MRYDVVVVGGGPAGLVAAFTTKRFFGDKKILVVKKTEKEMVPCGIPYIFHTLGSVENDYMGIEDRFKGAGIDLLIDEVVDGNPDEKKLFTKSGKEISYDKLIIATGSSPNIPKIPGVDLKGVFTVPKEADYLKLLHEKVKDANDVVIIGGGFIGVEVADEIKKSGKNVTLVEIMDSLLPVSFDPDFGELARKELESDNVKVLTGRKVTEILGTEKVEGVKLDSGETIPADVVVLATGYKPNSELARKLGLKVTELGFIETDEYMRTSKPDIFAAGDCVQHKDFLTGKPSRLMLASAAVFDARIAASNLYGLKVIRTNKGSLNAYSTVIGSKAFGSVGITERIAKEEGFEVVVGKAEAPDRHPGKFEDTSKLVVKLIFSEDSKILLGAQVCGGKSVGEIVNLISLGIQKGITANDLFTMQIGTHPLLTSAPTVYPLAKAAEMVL

B1: NSR (Thermotoga maritima MSB8) (protein)
chain: T1 sequence (Q9WYL1 1-443)
notes: full-length ORF amplified from genomic DNA, pET-24b(+) BamHI/XhoI, His-tagged, E. coli BL21; about 50 kDa by SDS-PAGE; FAD flavoprotein; purified anaerobically

Columns and labels:
[1] = target: T1, NSR; test: thin-layer chromatography of cofactor; type: binding; conditions: as-purified recombinant enzyme
[2] = substrate: NC(=O)C1=CN([C@@H]2O[C@H](COP(=O)(O)OP(=O)(O)OC[C@H]3O[C@@H](n4cnc5c(N)ncnc54)[C@H](OP(=O)(O)O)[C@@H]3O)[C@@H](O)[C@H]2O)C=CC1; test: purified protein; type: biochemical, Thermotoga maritima; conditions: co-substrate S^0, 50 mM phosphate pH 7.0, 45 °C, anaerobic, table cell does not tell whether CoA was present
[3] = substrate: O=S(O)(O)=S; test: purified protein; type: biochemical, Thermotoga maritima; conditions: co-substrate NADH, 50 mM phosphate pH 7.0, 45 °C, anaerobic, table cell does not tell whether CoA was present
[4] = substrate: NC(=O)C1=CN([C@@H]2O[C@H](COP(=O)(O)OP(=O)(O)OC[C@H]3O[C@@H](n4cnc5c(N)ncnc54)[C@H](O)[C@@H]3O)[C@@H](O)[C@H]2O)C=CC1; test: purified protein; type: biochemical, Thermotoga maritima; conditions: co-substrate S^0, 50 mM phosphate pH 7.0, 45 °C, anaerobic, table cell does not tell whether CoA was present

Molecule | thin-layer chromatography of cofactor [1] | Km [2] [µM] | Km [3] [µM] | Km [4] [µM]
Cc1cc2nc3c(=O)[nH]c(=O)nc-3n(C[C@H](O)[C@H](O)[C@H](O)COP(=O)(O)OP(=O)(O)OC[C@H]3O[C@@H](n4cnc5c(N)ncnc54)[C@H](O)[C@@H]3O)c2cc1C [FAD] | Thin-layer chromatography analysis showed that it binds FAD as its cofactor | – | – | –
B1 | – | 80 ± 21.2 | 10 ± 1.2 | 50 ± 6.3
